T1: human FcγRIIa type H (human, UniProt P12318 36-217)
T1 construct: also called FcyRIIaH; FcγRIIa(H)
T1 sequence: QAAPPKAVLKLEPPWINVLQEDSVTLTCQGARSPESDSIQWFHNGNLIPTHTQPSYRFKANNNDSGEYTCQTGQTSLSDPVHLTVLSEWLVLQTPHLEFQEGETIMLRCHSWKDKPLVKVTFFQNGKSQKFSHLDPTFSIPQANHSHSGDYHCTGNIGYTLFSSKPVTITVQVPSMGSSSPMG

T2: human FcγRIIb (human, UniProt P31994 43-217, limits assumed)
T2 construct: also called FcyRIfb; FcγIIB
T2 sequence: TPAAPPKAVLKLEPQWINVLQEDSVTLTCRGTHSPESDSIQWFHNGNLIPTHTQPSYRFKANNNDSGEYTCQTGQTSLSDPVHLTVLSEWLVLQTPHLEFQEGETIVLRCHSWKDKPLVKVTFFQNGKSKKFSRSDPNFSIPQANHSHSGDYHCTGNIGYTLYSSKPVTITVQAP


Legend:
Assay in all cases: SPR (Biacore), FcγR over captured antibody; binding amount relative to IL6R-BF648/IL6R-L x100
human FcγRIa = biological target: T3, human FcγRIa (human, UniProt P12314 16-292, limits assumed)
T3 construct: also called FcyRIa; CD64

human FcγRIIIa type V = biological target: T4, human FcγRIIIa type V (human, UniProt P08637 17-208, limits assumed)
T4 construct: also called FcyRIIIa; FcγRIIIaV

human FcγRIIa type H = biological target: T1, human FcγRIIa type H
human FcγRIIb = biological target: T2, human FcγRIIb

T3 sequence (P12314 16-292 limits assumed): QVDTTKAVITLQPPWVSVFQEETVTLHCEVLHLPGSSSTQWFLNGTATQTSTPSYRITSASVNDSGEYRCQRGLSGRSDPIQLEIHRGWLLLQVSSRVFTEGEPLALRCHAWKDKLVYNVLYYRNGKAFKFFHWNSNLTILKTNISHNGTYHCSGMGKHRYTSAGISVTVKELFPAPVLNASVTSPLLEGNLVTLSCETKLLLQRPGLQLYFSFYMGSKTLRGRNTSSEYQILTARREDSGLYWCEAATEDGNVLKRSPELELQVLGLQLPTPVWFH
T4 sequence (P08637 other isoform, or with tags, fused parts or gaps limits assumed): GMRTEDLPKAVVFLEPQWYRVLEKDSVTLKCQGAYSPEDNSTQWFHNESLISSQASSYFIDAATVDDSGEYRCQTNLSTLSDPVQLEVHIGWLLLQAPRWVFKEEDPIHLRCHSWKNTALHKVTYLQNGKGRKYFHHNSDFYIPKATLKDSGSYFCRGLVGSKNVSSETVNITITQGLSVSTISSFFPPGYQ

relative binding (human FcγRIa)	relative binding (human FcγRIIIa type V)	relative binding (human FcγRIIa type H)	relative binding (human FcγRIIb)	Binder
100 % of IL6R-BF648/IL6R-L	100 % of IL6R-BF648/IL6R-L	100 % of IL6R-BF648/IL6R-L	100 % of IL6R-BF648/IL6R-L	IL6R-BF648/IL6R-L (antibody, human IgG1, name in EU numbering, Alterations are those introduced into IL6R-B3) heavy: not shown light: DIQMTQSPSSLSASVGDRVTITCRASQDISSYLNWYQQKPGKAPKLLIYYTSRLHSGVPSRFSGSGSGTDFTFTISSLQPEDIATYYCQQGNTLPYTFGQGTKVEIK
	127 % of IL6R-BF648/IL6R-L	127 % of IL6R-BF648/IL6R-L	101 % of IL6R-BF648/IL6R-L	IL6R-BP110/IL6R-L (antibody, human IgG1, name in EU numbering) heavy: QVQLQESGPGLVKPSETLSLTCAVSGHSISHDHAWSWVRQPPGEGLEWIGFISYSGITNYNPSLQGRVTISRDNSKNTLYLQMNSLRAEDTAVYYCARSLARTTAMDYWGEGTLVTVSSASTKGPSVFPLAPSSKSTSGGTAALGCLVKDYFPEPVTVSWNSGALTSGVHTFPAVLQSSGLYSLSSVVTVPSSSLGTQTYICNVNHKPSNTKVDKKVEPKSCDKTHTCPPCPAPELLGGDSVFLFPPKPKDTLMISRTPEVTCVVVDVSNEDPEVKFNWYVDGVEVHNAKTKPREEQYNSTYRVVSVLTVLHQDWLNGKEYKCKVSNKALPAPIEKTISKAKGQPREPQVYTLPPSRDELTKNQVSLTCLVKGFYPSDIAVEWESNGQPENNYKTTPPVLDSDGSFFLYSKLTVDKSRWQQGNVFSCSVMHEALHNHYTQESLSLSP light: DIQMTQSPSSLSASVGDRVTITCRASQDISSYLNWYQQKPGKAPKLLIYYTSRLHSGVPSRFSGSGSGTDFTFTISSLQPEDIATYYCQQGNTLPYTFGQGTKVEIK
118 % of IL6R-BF648/IL6R-L	147 % of IL6R-BF648/IL6R-L	147 % of IL6R-BF648/IL6R-L	116 % of IL6R-BF648/IL6R-L	IL6R-2B002/IL6R-L (antibody, human IgG1, name in EU numbering) heavy: QVQLQESGPGLVKPSETLSLTCAVSGHSISHDHAWSWVRQPPGEGLEWIGFISYSGITNYNPSLQGRVTISRDNSKNTLYLQMNSLRAEDTAVYYCARSLARTTAMDYWGEGTLVTVSSASTKGPSVFPLAPSSKSTSGGTAALGCLVKDYFPEPVTVSWNSGALTSGVHTFPAVLQSSGLYSLSSVVTVPSSSLGTQTYICNVNHKPSNTKVDKKVEPKSCDKTHTCPPCPAPDLLGGDSVFLFPPKPKDTLMISRTPEVTCVVVDVSHEDPEVKFNWYVDGVEVHNAKTKPREEQYNSTYRVVSVLTVLHQDWLNGKEYKCKVSNKALPAPIEKTISKAKGQPREPQVYTLPPSRDELTKNQVSLTCLVKGFYPSDIAVEWESNGQPENNYKTTPPVLDSDGSFFLYSKLTVDKSRWQQGNVFSCSVMHEALHNHYTQESLSLSP light: DIQMTQSPSSLSASVGDRVTITCRASQDISSYLNWYQQKPGKAPKLLIYYTSRLHSGVPSRFSGSGSGTDFTFTISSLQPEDIATYYCQQGNTLPYTFGQGTKVEIK
60 % of IL6R-BF648/IL6R-L	97 % of IL6R-BF648/IL6R-L	93 % of IL6R-BF648/IL6R-L		IL6R-BP912/IL6R-L (antibody, human IgG1, name in EU numbering) heavy: QVQLQESGPGLVKPSETLSLTCAVSGHSISHDHAWSWVRQPPGEGLEWIGFISYSGITNYNPSLQGRVTISRDNSKNTLYLQMNSLRAEDTAVYYCARSLARTTAMDYWGEGTLVTVSSASTKGPSVFPLAPSSKSTSGGTAALGCLVKDYFPEPVTVSWNSGALTSGVHTFPAVLQSSGLYSLSSVVTVPSSSLGTQTYICNVNHKPSNTKVDKKVEPKSCDKTHTCPPCPAPELLGGDSVFLFPPKPKDTLMISRTPEVTCVVVDVSHEDPEVKFNWYVDGVEVHNAKTKPREEQYNSTYRVVSVLTVLHQDWLNGKEYKCKVSNKALPRPIEKTISKAKGQPREPQVYTLPPSRDELTKNQVSLTCLVKGFYPSDIAVEWESNGQPENNYKTTPPVLDSDGSFFLYSKLTVDKSRWQQGNVFSCSVMHEALHNHYTQESLSLSP light: DIQMTQSPSSLSASVGDRVTITCRASQDISSYLNWYQQKPGKAPKLLIYYTSRLHSGVPSRFSGSGSGTDFTFTISSLQPEDIATYYCQQGNTLPYTFGQGTKVEIK
